Reference: patent US20260078159A1 (CUGENE, published 2026)
Where “and” joins values, the source holds several entries; their conditions need not be identical. Identical values can stand only once. Like-named read-outs stand apart in the source and are kept apart here.

Key:
human PD1 on cells [1] = target: T1, human PD1 on cells (human, UniProt Q15116 25-288); experiment: cell-based or functional assay
[2] = target: recombinant human PD1 protein (human, UniProt Q15116 25-170, limits assumed); experiment: binding ELISA, plate-coated recombinant human PD1
Sequence of recombinant human PD1 protein (Q15116 25-170 limits assumed): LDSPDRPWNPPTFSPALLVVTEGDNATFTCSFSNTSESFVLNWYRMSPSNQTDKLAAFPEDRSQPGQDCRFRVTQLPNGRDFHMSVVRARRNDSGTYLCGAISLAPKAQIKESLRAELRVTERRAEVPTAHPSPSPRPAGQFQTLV
Protocol: Antibodies of the invention were tested for their antigen binding activity by well-known methods such as enzyme-linked immunosorbent assay (ELISA). Briefly, Nunc Maxisorp plates (ThermoFisher) were coated with recombinant human PD1 protein in bicarbonate buffer, pH 9.4 (ThermoFisher), overnight at 4° C., using 1 μg of antigen per well (100 μL/well). After triple washing with PBS/0.05% Tween 20, plates were incubated with SuperBlock (ThermoFisher) for two hours at room temperature to block nonspecific binding. The PD1 antibodies, serially diluted three-fold with blocking buffer (PBS with 1% bovine serum albumin) were added to the plates (100 μL/well) post washing and incubated at room temperature for one hour. After another washing, antibodies were detected by incubating with a horseradish peroxidase (HRP)-conjugated goat anti-human IgG Fc antibody (ThermoFisher) diluted 1:5000 in blocking buffer (100 μL/well) for one hour at room temperature. After a final wash, TMB substrate (ThermoFisher) at 100 μL/well was added. Plates were sealed and left to incubate in dark for 5-20 minutes. The reaction was stopped by adding 2N sulfuric acid (Ricca Chemical) (50 μL/well), and the absorbance was measured at 450 nm with a plate reader. The curves were plotted, and the half-maximal effective concentration (EC₅₀) values were calculated using GraphPad Prism software.

human PD1 on cells [3] = target: T1, human PD1 on cells; experiment: cell-based or functional assay; remark: listed apart in the source
human PD1 on cells [4] = target: T1, human PD1 on cells; experiment: cell-based or functional assay; remark: listed apart in the source
human PD1 on cells [5] = target: T1, human PD1 on cells; experiment: flow cytometry on PD1+ HEK293 cells, MFI
Protocol: (§1) Additionally, HEK 293T cells stably expressing human PD1 gene (Crown Bioscience) was used to determine the cell-based binding strength of the optimized PD1 antibodies by flow cytometry. After harvesting, HEK293-hPD1 cells were seeded into a 96-well U-bottom plate at 1×10⁵ cells/well (100 μL), incubated with Fc block (1:50) for 20 minutes at 4° C., and subsequently washed with FACS buffer (PBS, 1% FBS). Cells were then treated with three-fold serial dilutions of each antibody at concentrations ranging from 0.01-100 nM in FACS buffer for 30 minutes at 4° C. Subsequently, cells were washed twice with FACS buffer to remove unbound molecules, and 40 µL of the 1:100 diluted PE-labeled goat anti-human Fc secondary antibody (eBiosciences) was added to the cells. Following a 30-minute incubation at 4° C. and another double wash with FACS buffer, antibodies bound to the cells were detected with PE-labeled secondary antibody by flow cytometry (BD ACCURI-C6), and EC₅₀ values were calculated using GraphPad Prism software.

human PD1 on cells [6] = target: T1, human PD1 on cells; experiment: flow cytometry on PD1+ HEK293 cells, % positive cells
Protocol: as §1

T1 sequence (Q15116 25-288 limits assumed): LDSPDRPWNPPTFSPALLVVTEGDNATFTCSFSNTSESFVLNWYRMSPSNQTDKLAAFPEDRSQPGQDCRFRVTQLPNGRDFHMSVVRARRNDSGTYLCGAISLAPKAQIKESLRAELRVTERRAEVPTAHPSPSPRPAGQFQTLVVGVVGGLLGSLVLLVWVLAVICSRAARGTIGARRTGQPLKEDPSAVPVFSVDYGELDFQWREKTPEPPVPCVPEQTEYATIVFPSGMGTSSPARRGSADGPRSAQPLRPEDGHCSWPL

B1: P-1148 (antibody, human IgG1, kappa, V domains shown)
VH: QVQLVQSGVEVKKPGASVKVSCKASGYTFTNYYMYWVRQAPGQGLEWMGGINPSNGGTNFAQKFQGRVTLTTDSSTTTAYMELKSLQFDDTAVYYCARRDYRFDMGFDYWGQGTTVTVSS
VL: EIVLTQSPATLSLSPGERATLSCRASQGVSTSGYSYLHWYQQKPGQAPRLLIYLASYRASGVPARFSGSGSGTDFTLTISSLEPEDFAVYYCQHSRDLPLTFGGGTKVEIKR
notes: Full-length IgG1 L234A/L235A/G237A, kappa
Human PD1 on cells [1]
  PD1 blocking activity (reporter assay) EC50: 1.56 nM
  PD1 blocking activity (reporter assay) Fold induction: 4.63 fold
  PD1 blocking activity (reporter assay) Vmax: 48200 RLU
[2]
  EC50: 0.093 nM

B2: P-1177 (antibody, human IgG1, kappa, V domains shown)
VH: EVQLLESGGGLVQPGGSLRLSCAASGFTFTNYYMYWVRQAPGKGLEWMGGINPSNGGTNYADKFKGRFTISRDNSKNTLYLQMNSLRAEDTAVYYCARRDYRFDMGFDYWGQGTLVTVSS
VL: EIVLTQSPATLSLSPGERATLSCRASKGVSTSGYSYLHWYQQKPGQAPRLLIYLASYLESGVPARFSGSGSGTDFTLTISSLEPEDFAVYYCQHSRDLPLTFGGGTKVEIKR
Human PD1 on cells [3]
  PD1 blocking activity (reporter assay) EC50: 1.51 nM
  PD1 blocking activity (reporter assay) Fold induction: 4.77 fold
  PD1 blocking activity (reporter assay) Vmax: 48100 RLU

B3: P-1178 (antibody, human IgG1, kappa, V domains shown)
VH: EVQLLESGGGLVQPGGSLRLSCAASGFTFTNYYMYWVRQAPGKGLEWMGGINPSNGGTNYADKFKGRFTLSTDSSKNTLYLQMNSLRAEDTAVYYCARRDYRFDMGFDYWGQGTLVTVSS
VL: EIVLTQSPATLSLSPGERATLSCRASKGVSTSGYSYLHWYQQKPGQAPRLLIYLASYLESGVPARFSGSGSGTDFTLTISSLEPEDFAVYYCQHSRDLPLTFGGGTKVEIKR
Human PD1 on cells [3]
  PD1 blocking activity (reporter assay) EC50: 0.68 nM
  PD1 blocking activity (reporter assay) Fold induction: 5.5 fold
  PD1 blocking activity (reporter assay) Vmax: 53100 RLU

B4: P-1181 (antibody, human IgG1, kappa, V domains shown)
VH: EVQLLESGGGLVQPGGSLRLSCAASGFTFTNYYMYWVRQAPGKGLEWVSGINPSNGGTNFNDSVKGRFTISRDNSKNTLYLQMNSLRAEDTAVYYCARRDYRFDMGFDYWGQGTLVTVSS
VL: EIVLTQSPATLSLSPGERATLSCRASKGVSTSGYSYLHWYQQKPGQAPRLLIYLASYLESGVPARFSGSGSGTDFTLTISSLEPEDFAVYYCQHSRDLPLTFGGGTKVEIKR
Human PD1 on cells [4]
  drop in potency compared to P-0734: 15 fold
Human PD1 on cells [3]
  PD1 blocking activity (reporter assay) EC50: 9.18 nM
  PD1 blocking activity (reporter assay) Fold induction: 3.26 fold
  PD1 blocking activity (reporter assay) Vmax: 29600 RLU

B5: P-1175 (antibody, human IgG1, kappa, V domains shown)
VH: EVQLLESGGGLVQPGGSLRLSCAASGFTFTNYYMYWVRQAPGKGLEWVSGINPSNGGTNYADKFKGRFTISRDNSKNTLYLQMNSLRAEDTAVYYCARRDYRFDMGFDYWGQGTLVTVSS
VL: EIVLTQSPATLSLSPGERATLSCRASKGVSTSGYSYLHWYQQKPGQAPRLLIYLASYLESGVPARFSGSGSGTDFTLTISSLEPEDFAVYYCQHSRDLPLTFGGGTKVEIKR
Human PD1 on cells [4]
  decrease in Emax and fold induction compared to P-0734: 25%
  reduction in potency (EC50) compared to P-0734: 10 fold
Human PD1 on cells [3]
  PD1 blocking activity (reporter assay) EC50: 6.21 nM
  PD1 blocking activity (reporter assay) Fold induction: 4.07 fold
  PD1 blocking activity (reporter assay) Vmax: 42000 RLU

B6: P-1238 (antibody, human IgG1, kappa, V domains shown)
VH: EVQLLESGGGLVQPGGSLRLSCAASGFTFTNYYMYWVRQAPGKGLEWMGGINPSNGGTNYADKFKGRFTLSTDSSKNTLYLQMNSLRAEDTAVYYCARRDYRFDMGFDYWGQGTLVTVSS
VL: EIVLTQSPATLSLSPGERATLSCRASQGVSTSGYSYLHWYQQKPGQAPRLLIYLASYRESGVPARFSGSGSGTDFTLTISSLEPEDFAVYYCQHSRDLPLTFGGGTKVEIKR
Human PD1 on cells [4]
  PD1 blockade reporter assay EC50: 0.73 nM

B7: P-1176 (antibody, human IgG1, kappa, V domains shown)
VH: EVQLLESGGGLVQPGGSLRLSCAASGFTFTNYYMYWVRQAPGKGLEWVSGINPSNGGTNYADKFKGRFTLSTDSSKNTLYLQMNSLRAEDTAVYYCARRDYRFDMGFDYWGQGTLVTVSS
VL: EIVLTQSPATLSLSPGERATLSCRASKGVSTSGYSYLHWYQQKPGQAPRLLIYLASYLESGVPARFSGSGSGTDFTLTISSLEPEDFAVYYCQHSRDLPLTFGGGTKVEIKR
Human PD1 on cells [3]
  PD1 blocking activity (reporter assay) EC50: 0.67 nM
  PD1 blocking activity (reporter assay) Fold induction: 5.27 fold
  PD1 blocking activity (reporter assay) Vmax: 52100 RLU

B8: P-1198 (antibody, human IgG1, kappa, V domains shown)
VH: EVQLLESGGGLVQPGGSLRLSCAASGFTFTNYYMYWVRQAPGKGLEWVSGINPSNGGTNFADKFKGRFTISRDSSKNTLYLQMNSLRAEDTAVYYCARRDYRFDMGFDYWGQGTLVTVSS
VL: EIVLTQSPATLSLSPGERATLSCRASQGVSTSGYSYLHWYQQKPGQAPRLLIYLASYRESGVPARFSGSGSGTDFTLTISSLEPEDFAVYYCQHSRDLPLTFGGGTKVEIKR
notes: as for B1
Human PD1 on cells [5]
  EC50: 0.087 nM
Human PD1 on cells [6]
  EC50: 0.019 nM

B9: P-1127 (antibody, human IgG1, kappa, V domains shown)
VH: QVQLVQSGVEVKKPGASVKVSCKASGYTFTNYYMYWVRQAPGQGLEWMGGINPSNGGTNFNEKFKNRVTLTTDSSTTTAYMELKSLQFDDTAVYYCARRDYRFDMGFDYWGQGTTVTVSS
VL: EIVLTQSPATLSLSPGERATLSCRASQGVSTSGYSYLHWYQQKPGQAPRLLIYLASYRESGVPARFSGSGSGTDFTLTISSLEPEDFAVYYCQHSRDLPLTFGGGTKVEIKR
Human PD1 on cells [4]
  PD1 blockade reporter assay EC50: 0.39 nM and 0.54 nM

B10: P-1129 (antibody, human IgG1, kappa, V domains shown)
VH: QVQLVQSGVEVKKPGASVKVSCKASGYTFTNYYMYWVRQAPGQGLEWMGGINPSNGGTNFNEKFKNRVTLTTDSSTTTAYMELKSLQFDDTAVYYCARRDYRFDMGFDYWGQGTTVTVSS
VL: EIVLTQSPATLSLSPGERATLSCRASQGVSTSGYSYLHWYQQKPGQAPRLLIYLASYRASGVPARFSGSGSGTDFTLTISSLEPEDFAVYYCQHSRDLPLTFGGGTKVEIKR
Human PD1 on cells [4]
  PD1 blockade reporter assay EC50: 0.58 nM

B11: P-1153 (antibody, human IgG1, kappa, V domains shown)
VH: QVQLVQSGVEVKKPGASVKVSCKASGYTFTNYYMYWVRQAPGQGLEWMGGINPSNGGTNYAQKFQGRVTLTTDSSTTTAYMELKSLQFDDTAVYYCARRDYRFDMGFDYWGQGTTVTVSS
VL: EIVLTQSPATLSLSPGERATLSCRASQGVSTSGYSYLAWYQQKPGQAPRLLIYLASYRASGVPARFSGSGSGTDFTLTISSLEPEDFAVYYCQHSRDLPLTFGGGTKVEIKR
notes: as for B1
Human PD1 on cells [1]
  PD1 blocking activity (reporter assay) EC50: 9.88 nM
  PD1 blocking activity (reporter assay) Fold induction: 3.04 fold
  PD1 blocking activity (reporter assay) Vmax: 30800 RLU
Human PD1 on cells [4]
  decrease in PD1 blockade potency (EC50) compared to P-0734: ~20 fold
[2]
  EC50: 0.11 nM

B12: P-1151 (antibody, human IgG1, kappa, V domains shown)
VH: QVQLVQSGVEVKKPGASVKVSCKASGYTFTNYYMYWVRQAPGQGLEWMGGINPSNGGTNYAQKFQGRVTLTTDSSTTTAYMELKSLQFDDTAVYYCARRDYRFDMGFDYWGQGTTVTVSS
VL: EIVLTQSPATLSLSPGERATLSCRASQGVSTSGYSYLHWYQQKPGQAPRLLIYLASYRASGVPARFSGSGSGTDFTLTISSLEPEDFAVYYCQHSRDLPLTFGGGTKVEIKR
notes: as for B1
Human PD1 on cells [1]
  PD1 blocking activity (reporter assay) EC50: 2.83 nM
  PD1 blocking activity (reporter assay) Fold induction: 4.15 fold
  PD1 blocking activity (reporter assay) Vmax: 44300 RLU
[2]
  EC50: 0.065 nM

B13: P-1150 (antibody, human IgG1, kappa, V domains shown)
VH: QVQLVQSGVEVKKPGASVKVSCKASGYTFTNYYMYWVRQAPGQGLEWMGGINPSNGGTNFAQKFQGRVTLTTDSSTTTAYMELKSLQFDDTAVYYCARRDYRFDMGFDYWGQGTTVTVSS
VL: EIVLTQSPATLSLSPGERATLSCRASQGVSTSGYSYLAWYQQKPGQAPRLLIYLASYRASGVPARFSGSGSGTDFTLTISSLEPEDFAVYYCQHSRDLPLTFGGGTKVEIKR
notes: as for B1
Human PD1 on cells [1]
  PD1 blocking activity (reporter assay) EC50: 5.55 nM
  PD1 blocking activity (reporter assay) Fold induction: 3.49 fold
  PD1 blocking activity (reporter assay) Vmax: 36500 RLU
[2]
  EC50: 0.088 nM

B14: P-1174 (antibody, human IgG1, kappa, V domains shown)
VH: QVQLVQSGVEVKKPGASVKVSCKASGYTFTNYYMYWVRQAPGQGLEWMGGINPSNGGTNFAQKFQGRVTLTTDSSTTTAYMELKSLQFDDTAVYYCARRDYRFDMGFDYWGQGTTVTVSS
VL: EIVLTQSPATLSLSPGERATLSCRASQGVSTSGYSYLHWYQQKPGQAPRLLIYLASYRESGVPARFSGSGSGTDFTLTISSLEPEDFAVYYCQHSRDLPLTFGGGTKVEIKR
Human PD1 on cells [4]
  PD1 blockade reporter assay EC50: 0.67 nM
